Source: the supplement of paper PMC7877785
± gives the uncertainty stated by the source.

Test: self-splicing fitness, log relative to wild type (ln ratio); higher = more splicing; Tetrahymena group I intron in knt gene, E. coli kanamycin selection, DiMSum; sequences stand for … in CUCUCU…GGAGGGAAAAGUUAUCAGGCAUGCACCUGGUAGCUAGUCUUUAAACCAAUAGAUUGCAUCGGUUUAAAAGGCAAGACCGUCAAAUUGCGGGAAAGGGGUCAACAGCCGUUCAGUACCAAGUCUCAGGGGAAACUUUGAGAUGGCCUUGCAAAGGGUAUGGUAAUAAGCUGACGGACAUGGUCCUAACCACGCAGCCAAGUCCUAAGUCAACAGAUCUUCUGUUGAUAUGGAUGCAGUUCACAGACUAAAUGUCGGUCGGGGAAGAUGUAUUCUUCUCAUAAGAUAUAGUCGGACCUCUCCUUAAUGGGAGCUAGCGGAUGAAGUGAUGCAACACUGGAGCCGCUGGGAACUAAUUUGUAUGCGAAAGUAUAUUGAUUAGUUUUGGAGUACUCGUGGUCG
Method in brief: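 The eight P1ex-region nucleotides of an intron in the knt kanamycin-resistance gene on pET-22b(+) were all randomised and the library put into E. coli BL21(DE3). Six replicate transformations were grown overnight at 37°C or 30°C on LB agar with or without 25 μg/mL kanamycin, together with 100 μg/mL carbenicillin, 50 μM IPTG and 0.2% rhamnose. Colonies were pooled and amplicon-sequenced on an Illumina HiSeq 2500. Fitness from DiMSum is the error-weighted combination of wild-type-normalised replicate fold changes, kanamycin over none.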

Sequence	self-splicing fitness (ln) (30 °C)	self-splicing fitness (ln) (37 °C)
UCCGAGCAAUAUUACGUUAU	-3.95 ± 0.21	-1.93 ± 0.19
UCCGAGCAAUAUUACGUUCC	-3.5 ± 0.25	-3.16 ± 0.32
UCCGAGCAAUAUUACGUUGA	-2.17 ± 0.097	-0.915 ± 0.087
UCCUAGCAAUAUUACGACCA	-0.552 ± 0.22	-2.28 ± 0.35
UCCUAGCAAUAUUACGAUGG	-3.64 ± 0.23	-2.15 ± 0.21
UCCUAGCAAUAUUACGAUUU	-2.16 ± 0.16	-1.36 ± 0.21
UCCUAGCAAUAUUACGCAUC	-2.3 ± 0.21	-1.27 ± 0.22
UCCUAGCAAUAUUACGCCUU	-2.98 ± 0.33	-2.34 ± 0.35
UCCUAGCAAUAUUACGCUCG	-3.13 ± 0.21	–
UCCUAGCAAUAUUACGGAGU	-3.81 ± 0.22	-1.3 ± 0.13
UCCUAGCAAUAUUACGGCAU	-3.31 ± 0.17	-2.2 ± 0.11
UCCUAGCAAUAUUACGGCGA	-0.128 ± 0.092	0.153 ± 0.1
UCCUAGCAAUAUUACGGGCG	-0.227 ± 0.093	-0.227 ± 0.11
UCCUAGCAAUAUUACGGGGU	-4.13 ± 0.29	-2.65 ± 0.2
UCCUAGCAAUAUUACGUCUG	-4.52 ± 0.41	-3.05 ± 0.21
UCCUAGCAAUAUUACGUGAA	-0.777 ± 0.078	-0.552 ± 0.1
UCCUAGCAAUAUUACGUGCC	-2.26 ± 0.33	-2.02 ± 0.39
UCCUAGCAAUAUUACGUUCU	-3.14 ± 0.14	-2.51 ± 0.13
UCCUAGCAAUAUUACGUUGG	-3.74 ± 0.27	-2.35 ± 0.2
UCCUAGCAAUAUUACGUUGU	–	-1.99 ± 0.29
UCGAAGCAAUAUUACGACUA	-1.05 ± 0.16	-0.97 ± 0.13
UCGAAGCAAUAUUACGAGAG	-3.06 ± 0.43	-1.91 ± 0.25
UCGAAGCAAUAUUACGAGCA	-1.77 ± 0.14	0.162 ± 0.14
UCGAAGCAAUAUUACGAGCG	-1.04 ± 0.078	-0.114 ± 0.094
UCGAAGCAAUAUUACGAUUA	-1.19 ± 0.12	-0.794 ± 0.11

Sequence	self-splicing fitness (ln) (30 °C)	self-splicing fitness (ln) (37 °C)
UCGAAGCAAUAUUACGCAAC	-2.37 ± 0.42	–
UCGAAGCAAUAUUACGCAGC	-2.71 ± 0.27	-2.18 ± 0.23
UCGAAGCAAUAUUACGCAUG	-1.2 ± 0.085	-0.698 ± 0.1
UCGAAGCAAUAUUACGCCAG	-2.24 ± 0.25	-2.09 ± 0.42
UCGAAGCAAUAUUACGCCCA	-1.84 ± 0.32	-0.793 ± 0.25
UCGAAGCAAUAUUACGCCUA	–	-1.71 ± 0.42
UCGAAGCAAUAUUACGCGCG	-1.26 ± 0.1	-0.735 ± 0.12
UCGAAGCAAUAUUACGCUGU	-2.33 ± 0.21	-2.06 ± 0.33
UCGAAGCAAUAUUACGCUUC	-3.77 ± 0.25	-2.38 ± 0.3
UCGAAGCAAUAUUACGGCAA	-1.81 ± 0.19	-1.72 ± 0.17
UCGAAGCAAUAUUACGGCCG	-0.31 ± 0.18	0.0326 ± 0.34
UCGAAGCAAUAUUACGGCGU	-0.22 ± 0.087	-0.249 ± 0.12
UCGAAGCAAUAUUACGGGCU	-4.18 ± 0.39	-2.67 ± 0.35
UCGAAGCAAUAUUACGGUAG	-1.4 ± 0.1	-1.61 ± 0.11
UCGAAGCAAUAUUACGGUCU	-2.6 ± 0.14	-0.844 ± 0.13
UCGAAGCAAUAUUACGGUUA	-0.579 ± 0.12	-0.97 ± 0.097
UCGAAGCAAUAUUACGUCAU	-2.62 ± 0.15	-2.58 ± 0.21
UCGAAGCAAUAUUACGUGCU	-3.75 ± 0.18	-3.77 ± 0.31
UCGAAGCAAUAUUACGUGGU	-3.51 ± 0.18	-2.88 ± 0.24
UCGAAGCAAUAUUACGUUGG	-2.99 ± 0.12	-1.86 ± 0.15
UCGAAGCAAUAUUACGUUGU	-2.09 ± 0.19	-2.33 ± 0.2
UCGCAGCAAUAUUACGAAGA	-2.23 ± 0.13	-1.43 ± 0.15
UCGCAGCAAUAUUACGAAGU	-3.51 ± 0.2	-2.53 ± 0.15
UCGCAGCAAUAUUACGAGGU	-3.14 ± 0.25	-2.85 ± 0.19
UCGCAGCAAUAUUACGAUCA	-1.27 ± 0.15	-1.18 ± 0.15

Sequence	self-splicing fitness (ln) (30 °C)	self-splicing fitness (ln) (37 °C)
UCGCAGCAAUAUUACGCAAC	–	-2.8 ± 0.17
UCGCAGCAAUAUUACGCACU	-2.21 ± 0.18	-0.563 ± 0.2
UCGCAGCAAUAUUACGCCAG	-2.63 ± 0.084	-1.72 ± 0.1
UCGCAGCAAUAUUACGCGCU	-1.23 ± 0.12	-1.19 ± 0.21
UCGCAGCAAUAUUACGCGUU	-4.2 ± 0.27	-2.38 ± 0.13
UCGCAGCAAUAUUACGCUAG	-4.54 ± 0.25	-2.18 ± 0.2
UCGCAGCAAUAUUACGCUGG	-1.76 ± 0.16	-2 ± 0.21
UCGCAGCAAUAUUACGCUUC	-1.8 ± 0.34	-1.68 ± 0.44
UCGCAGCAAUAUUACGCUUG	-1.93 ± 0.14	-1.83 ± 0.15
UCGCAGCAAUAUUACGGAAG	-2.74 ± 0.25	-1.74 ± 0.22
UCGCAGCAAUAUUACGGAGA	-2.75 ± 0.13	-1.02 ± 0.1
UCGCAGCAAUAUUACGGAUC	-3.82 ± 0.35	–
UCGCAGCAAUAUUACGGCUU	-1.16 ± 0.08	0.404 ± 0.12
UCGCAGCAAUAUUACGGGUU	-2.63 ± 0.14	-2.38 ± 0.16
UCGCAGCAAUAUUACGGUUA	-0.15 ± 0.086	-0.398 ± 0.087
UCGCAGCAAUAUUACGGUUU	-3.17 ± 0.12	-1.72 ± 0.12
UCGCAGCAAUAUUACGUACA	-1.62 ± 0.15	-0.509 ± 0.12
UCGCAGCAAUAUUACGUAGA	-0.804 ± 0.065	-0.0374 ± 0.079
UCGCAGCAAUAUUACGUCUC	–	-1.97 ± 0.27
UCGCAGCAAUAUUACGUCUG	–	-1.97 ± 0.18
UCGCAGCAAUAUUACGUUCU	-3.58 ± 0.18	-2.31 ± 0.11
UCGCAGCAAUAUUACGUUGU	-2.56 ± 0.2	-1.73 ± 0.21
UCGCAGCAAUAUUACGUUUA	-1.78 ± 0.12	-1.11 ± 0.11
UCGGAGCAAUAUUACGAAUU	-2.9 ± 0.26	-2.69 ± 0.28
UCGGAGCAAUAUUACGAGUG	-2.47 ± 0.18	-2.48 ± 0.19

Sequence	self-splicing fitness (ln) (30 °C)	self-splicing fitness (ln) (37 °C)
UCGGAGCAAUAUUACGAUCA	–	-1.23 ± 0.48
UCGGAGCAAUAUUACGAUGA	-0.946 ± 0.15	-1.11 ± 0.16
UCGGAGCAAUAUUACGAUUC	-0.553 ± 0.26	-0.938 ± 0.24
UCGGAGCAAUAUUACGCGCA	-0.975 ± 0.23	–
UCGGAGCAAUAUUACGCGUA	-1.73 ± 0.26	-1.38 ± 0.21
UCGGAGCAAUAUUACGCGUC	-2.14 ± 0.47	–
UCGGAGCAAUAUUACGCUAU	-3.09 ± 0.34	-2.48 ± 0.36
UCGGAGCAAUAUUACGGGGA	-1.76 ± 0.2	-1.13 ± 0.19
UCGGAGCAAUAUUACGUAAA	-3.16 ± 0.31	-1.55 ± 0.29
UCGGAGCAAUAUUACGUCAA	–	-2.12 ± 0.38
UCGGAGCAAUAUUACGUUUA	-2.32 ± 0.29	-2.35 ± 0.42
UCGUAGCAAUAUUACGAGAA	-2.57 ± 0.49	-1.61 ± 0.41
UCGUAGCAAUAUUACGAGUG	-3.62 ± 0.32	-3.09 ± 0.3
UCGUAGCAAUAUUACGAGUU	-3.76 ± 0.25	-2.5 ± 0.2
UCGUAGCAAUAUUACGCGGC	–	-2.15 ± 0.46
UCGUAGCAAUAUUACGCGGG	-3.63 ± 0.37	-0.254 ± 0.15
UCGUAGCAAUAUUACGCUAU	-2.37 ± 0.45	-2.88 ± 0.4
UCGUAGCAAUAUUACGCUCG	-1.9 ± 0.16	-1.2 ± 0.23
UCGUAGCAAUAUUACGCUUG	-2.53 ± 0.17	-0.409 ± 0.14
UCGUAGCAAUAUUACGCUUU	-2.74 ± 0.14	-2.4 ± 0.15
UCGUAGCAAUAUUACGGCUC	–	-1.44 ± 0.24
UCGUAGCAAUAUUACGGGGC	-2.26 ± 0.2	-2.55 ± 0.27
UCGUAGCAAUAUUACGGGGU	-3.35 ± 0.23	-2.35 ± 0.25
UCGUAGCAAUAUUACGGGUU	-3.23 ± 0.18	-2.38 ± 0.23
